# US20120059148 (published 2012)
# Biological target: LDL receptor (cell surface) (UniProt P01130)
# Experiment: other, cell binding, total binding double reciprocal plot
# Sequence of LDL receptor (cell surface) (P01130 22-788): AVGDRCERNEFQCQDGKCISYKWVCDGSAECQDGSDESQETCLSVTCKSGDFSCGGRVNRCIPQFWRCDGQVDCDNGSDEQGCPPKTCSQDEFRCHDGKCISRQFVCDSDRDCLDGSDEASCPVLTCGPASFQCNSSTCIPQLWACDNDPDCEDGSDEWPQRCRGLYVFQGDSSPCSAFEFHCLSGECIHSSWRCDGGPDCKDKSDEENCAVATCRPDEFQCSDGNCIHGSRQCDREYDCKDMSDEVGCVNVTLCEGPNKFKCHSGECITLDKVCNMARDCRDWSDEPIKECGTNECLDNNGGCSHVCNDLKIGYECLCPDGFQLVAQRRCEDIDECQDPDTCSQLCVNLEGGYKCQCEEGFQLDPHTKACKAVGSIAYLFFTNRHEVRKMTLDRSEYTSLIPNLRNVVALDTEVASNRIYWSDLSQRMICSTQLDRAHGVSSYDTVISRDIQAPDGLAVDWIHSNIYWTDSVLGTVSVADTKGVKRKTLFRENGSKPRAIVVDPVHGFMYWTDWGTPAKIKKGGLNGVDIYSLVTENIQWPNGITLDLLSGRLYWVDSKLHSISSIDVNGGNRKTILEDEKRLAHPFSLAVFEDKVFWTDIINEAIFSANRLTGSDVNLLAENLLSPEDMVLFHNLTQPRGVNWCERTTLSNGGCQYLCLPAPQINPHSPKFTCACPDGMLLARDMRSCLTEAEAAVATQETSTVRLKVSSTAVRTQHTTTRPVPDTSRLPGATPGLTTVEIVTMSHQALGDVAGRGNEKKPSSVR
row,Kd,Binder
1,3 µM,YKLEGTTRLTRKRGLKLATALS [[Peptide D] nLDL]
2,7.7 µM,YKLQGTTRLTRKRGLKLATALS [[Peptide C] nLDL]
3,9.3 µM,GTTRLTRKRGLKL [[Peptide B] nLDL]
4,15.2 µM,TGKRYRLKTLRTLKKTSLLEAA [[Peptide E] nLDL]
